According to the nanobody polyreactivity screen of Harvey et al. (2022):

Experiment: yeast display, Sf9 membrane polyspecificity reagent, FACS + sequencing; frameworks hold sequencing errors
Procedure, shortened: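 A synthetic nanobody library was expressed on Saccharomyces cerevisiae BJ5465 by galactose induction for 36–48 hours. The library was stained for 1 hour at 4 °C with 10% biotinylated, detergent-solubilized Sf9 membrane reagent and enriched with streptavidin microbeads before FACS. Low and high (top ~1%) gates were set on anti-HA fluorescence for expression and streptavidin fluorescence for reagent binding, and each polyreactivity label reflects the gate of origin.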

| Sequence | polyreactivity (PSR sort gate) |
| --- | --- |
| QVQLVESRVGLVQAGGSLRLSCAASGIIFTLYAMGWYRQAPGKERELVAGIDASGGSTSYADSVKGRFTISRDNAKNTVYLQMNSLKPEVTAVYYCAARILPYGYDYWGQGTQVTVSS | low polyreactivity |
| QVQLVESGGGLVQAGGSLRLSCAASGFTFYYNAMGWYRQAQGKERELVAAMSRSGGRTYYADSVKGRFTISRDNAKNTVYLQMNSLKPEDTAVYYCNRRTRPDGGESDYWGQGTLVTVSS | high polyreactivity |
| QVQLVESGGGLVQAGGSLRLSCAASGITFWSNAMGWYRQAPGKERELVAAITSSGGSTYYADSVKGRFTISRDNAKNTVYLQMNSLKPEDTAVYYCAAPISRSAGWDSYDYWGQGTQVTVSS | low polyreactivity |
| HVQLVESGGGLVQAGGSLRLSCAASGFIIADNAMGWDRQAPGKERELVAAISSSGGSTYYADSVKARFTISRDNAKNTVYLQMNSLKPVDTAVYYCAARTYHPRYVRPTFYYWGQGTQVTVSS | low polyreactivity |
| QVQLVESGGGLVQAGGSLRLSCAASVRTFDSYTMGWYRPAPGKERELVAAIRSSGGRTYADSVKGRFTISRDNAKNTVYLQMNSLKPEDTAVYYCAAARSYWAKYYYWGQGTQVTVSS | high polyreactivity |
| QVQLVESGGGLVQAGGSLRLSCAASRRIFGFYAMGWYRQAPGKERELVADINWSATSTYYADSVKGRFTISRDTAKNTVYLQMNSLKPEDTAVYYCAADVSYRYYWGQGTQVTVSS | low polyreactivity |
| QVQLVDSGGGIVQAGGSLRLSCAASGSTLKYNAMGWYRQAPGKERELVAAISTSGGNTYYADSVKGRFTISRDNAKNTVYLQMNSLKPEDTAVYYCAKVLGYYYYDYDSWGQGTQVTVSS | low polyreactivity |
| QVQLVESGGGLVQAGGSLRLSCAASGRTFGDYAMGWYRQAPGKERELVAAISSSGGRTYYADSVKGRFTISRDNAKNTVYLQMNSLKPEDTAVYYCAAQSKYYQYYSWGQGTQVTVSS | high polyreactivity |
| QVQLVESVGGLVQAGGSLRLSCAASGSIFKYYAMGWYRQEPGKERELVAAITIGGNTNYADSVKGRFTISRDNAKNTVYLQMNSLKPEDTAVYYCATGGYYSAIVYGGYDYWGQGTQVSVSS | low polyreactivity |
| QVQLVESGGGLVQAGGSLRLSCAASGRIFVYNAMGWYRQAPGKEWELVATITSGGSTYYADSVKGRFTISRDNAMNTVYLQMNSLKPEDTAVYYCAARRWYVHYFAYGYWGQGTQVTVSS | low polyreactivity |
| QVQLVESGGGLVQAGGSLRLSCAACGFSFWRNAMGRTRRAPGKDRELVAAISASGGSTYYADSVKGRFTISRDNATNTVFLQRNSLKPEDTAVYYCAADTQGFYRYDYWGQGTQVTVSS | low polyreactivity |
| QVQLVESGGGLVQAGGSLRLSCAASGRTFSGYAMGWYRQAPGKEREFVAAITSSGSSTYYADSVKWRFTISRVIAKNTVYLQMNSLKPEDTAVYYCAATPQAHSERYYYQRKYDYWGQGTQVTVSS | low polyreactivity |
| QVQLVESGVGLVQAGGSLRLSCAASGLTFLYYAMAWLRQAPGKERELVAVISSGGRTYYADSVKGRFTISRDNAKNTVYLQMHSLKPEDTAVYYCAAYDPYYQSTFDYWGQGTQVTVSS | high polyreactivity |
| QVQLVESGGGLVQAGGSLRLSCAASGSTFYQNAMGWYRQAPGKERELVAAISGGSDTYYADSVKGRFTISRDNAKNTVYLQMNSLKPEDTAFYYCAADVASSEGKSWTLKDEYDYWGQGTQVTVSS | low polyreactivity |
| QVQLVESWGGLVQAGGSLRLSCAASGRIFGRYAMGWYRQAPGKERELVAAIRSTGSTNYADSVKGRFTISRDNAKNTVYLQMNSLKPEDTAVYYCAAYRRRTYAVNKEGGYWGQGTQVTVSS | high polyreactivity |
| QVQLVESGGGLVQAGGSLRLSCAASGRIFWDYAMGWYRQAPGKERELVAGISYSGGSTSYADSVKGRFTISRDNAKNTVYLQMKSLKPEDTAVYYCAAGPSGTFFRDYDYWGQGTQVTVSS | low polyreactivity |
| QVQLVETGGGLVQAGGSLRLSCAASGITFWYYAMGWYIQAPGKERELVAAITSGGSTYYADSVKGRFTISRDNAKNTVYLQMNSLKPEDTAVYYCAKDSVWGAKNLTSYKYYYWGQGTQVTVSS | low polyreactivity |
| QVQLVESGGGLVHAGGSLRLSCAASGSTFKGYAMGWYRQAPGKERELVASIRSSSGSTYYADSVKGRFTISRDNAKNTVYLQMNSLKPEDTAVYYCATALWVRYYGQGGYIRRYDYWGQGTHVTVSS | high polyreactivity |
| QVQLVESGGGLVQAGCSLRLSCAASGSIFGWYAMGWYRPAPGKERELVAAITLIGGSTYYADSVKGRFTISRDNAKNTVYLQMNSLKPEDTAVYYCNAVWYWGDMDYWGQGTQVTVSS | low polyreactivity |
| QVQLVESGGGLVQAGGSLRLSCAASGFTFIYYAMGWYRQAPGKERELVAAITSGGNTYYADSVKGRFTISRDNAKNTVYFQMNSLKPEDTAVYYCNKVPHREWVGGYDYWGQGTQVTVSS | low polyreactivity |
| QVQLVESGGGLVQAGGSLRLICAASGGIIYWNAMGWYRQAPGKERELVATITRSGGSTYYADSVKGRFTISRDNAKNTVYLQMNSLKPEDTAVYYCAARSYYRFDYWGQGTQVTVSS | high polyreactivity |
| QVQLVESGGGLVQAGGSLRLTCAASGSIFTYYVRGWYRQAPGKEMELVARISRRGGSTYYADSVKGRFTISRDNAKNTVYLQMNSLKPEDTAFYYCNRVFYYDRDNYDYWGQGTQVTVSS | high polyreactivity |

| Sequence | polyreactivity (PSR sort gate) |
| --- | --- |
| QVQLVESGGGLVQAGGSLRLSCAASGLIFYTYAMGWYRQAPGKERELVAGISRSGTSTRYADSVKGRFTISRDNAKNTVYLQMNSLKPEDTAVYYCNAVGRSKHGYSRSYYWGQGTQVTVSS | high polyreactivity |
| QVQLVESGGGLVQAGGSLRLSCAASGSIFSYYAMGWYRQAPGKERELVAAINWSGGRTYYADSVKGRFTISRDNAKNTVYLQMNSLKPEDTAVYYCNAVSNFWFIVFYGNQPKTDDYWGQGTQVTVSS | high polyreactivity |
| QVQLVESGGGLVQAGGSLSLSCAASGYIVKAYVMGWYRPAPGKVRELVAAITWSGGSTYYADTVKGRFTISRDNAKNTVYLQMNSLKPEDTAVYYCAAYARRYRTPYDFWGQGTQVTLSS | high polyreactivity |
| QVQLVESGGGLVQAGGSLRLSCAASGRIFYFNTMGWSRQAPGKERELVAAISKNGGSTYYADSVKGRFTISRDTAKNTVYLQMNSLKPEDTAVYYCAKTRRLSPYDYWGQGTQVTVSS | high polyreactivity |
| QVQLVESGGGLVQAGGSLRLSCAASGFIFGRYAMGWYRQAPGKERELVAAISRSGARTYYADSVKGRFTISRDNAKNTVYLQMNSLKPEDTAVYYCARYQPRVSFDYWGQGTQVTVSS | high polyreactivity |
| QVQLVESGGGLVQAGGSLRLICAASGSIFRLYAMGWYRPAPGKEREFVARIRWRGGSTNYADSVKGRFTISRDNAKNTVYLQMNCLKPVDTAVYYCAAKQGTVRAHTYVAWYDYWGQGTQVTVSS | high polyreactivity |
| QLQLVETGGGLVQAGGSLRLSCASSGRTFTAYAMVWYREAAGKESELVAAITLSGGRTYYADSVKGRFTISRDNAKNTVYLQMNSLKPEDTAVYYCATDYYWGQGTQVTVSS | high polyreactivity |
| QVQLVESGGGLVQAGGSLRLSCAASGLTFLWYAMGWYRQAPGKERELVAAITSGGRTKYADSVKGRFTISRDNAKNTVYLQMNSLKPEDTAVYYCAKRGGGTTYSRKHDYWGQGTQVTVSS | high polyreactivity |
| QVQLVESGGGLVQAGGSLRLSCAASGRIFYNYAMGWYRQAPGKERELVAAISGSGGSTYYADSVKGRFTISRDNAKKTVYLQMNSLKPEDTAVYYCSTSGPQYYSRNFDYWGQGTQVTVSS | low polyreactivity |
| QVQIVESGGGLVQAGGSLRFSCAASGRIFRGYDMGWYRQAPGKEREFVAAISWSGGNTYYADSVKGRFTISRDNAKNTVYLLMNSLNPEDTAVYYCAARVFGSHFYYRTRPYDYWGQGTQVTVSS | high polyreactivity |
| QVHLVESGGGLVQAGGSLRLSCAASGSTFFKNAMGWYRQAAGKERELVAAITWSGDRTYADSVKGRFTISRDNAKYTVYLQMNSLKPEDTAVYYCNVDITGYEDDYWGQGTQVTVSS | low polyreactivity |
| QVQLVESGGGLVQAGGSLRLSCAASGFTFVYNAMGWYRPAPGKERELVAAITSGGNTYYADSVKGRFTISRDNAKNTVYLQMNSLKPEDTAVYYCAKRGYGRYYAYDYWGQGTQVTVSS | high polyreactivity |
| QVQLVESGGGLVQAGGSLRLSCAASGRTFYFNAMGWYRQAPGKERELVATITSDGSTNYADSVKGRFTISRDNAKNTVYLQMNSLKPEDTAVYYCAADYYRDIWPWYPLYNYWGQGTQVTVSS | low polyreactivity |
| QVQLVESGGGLVQAGGSLRLSCAASGRIFRAYTMGWYRQAPGKERELVAAITWRGGRTYYADSVKGRFTISRDNAKNTVYLQMNSLKPEDTAVYYCAAVRKYRAMDYWGQGTQVTVSS | high polyreactivity |
| QVQLVESGGGLVQAGGSLRLSCAASGSPYQQYGMGWYRQAPGKERELVAAITFSDGNTYYADSVTGRFTISRDNAKNTVYLQMNSLKPEDTAVYYCNAGYSYGVSYAEGGYWGQGTQVTVSS | low polyreactivity |
| QVQLVESGGGLVQAGGSLRLSCAASGFTVSAYALGWYRQAPGKERELVAAISTRGGSTRYADSVKGRFTISRDNAKNTVYLQMNSLKPEDTAVYYCAADTRSFYRYDYWGQGTQVTVSS | high polyreactivity |
| QVQLVESGGGLVQAGGSLRLSCAASGFIFYRNTMGWYRQAPGKEREFVAAIRWRGGSTYYADSVKGRFTISRDNAKNTVYLQMNSLKPEDTAVYYCAAGTPWSVEGSYVTYPWNRYYYWGQGTQVTVSS | high polyreactivity |
| QVQLVESGGGLVQAGGSLRLSCPASGYILHKYAMGSYRQAPGKERELVATISGGGGSTYYADSVKGRFTISRDNAKNTVYLQMNSLKPEDTAVYYCAIEYPWLPRSYEYGGQGTQVTVSS | low polyreactivity |
| QVQLVESGGGLVQAGGSLRLSSAASGFTFPVYAMGWYRPATGKESELVAAISRRGGRTYYADSVKGRFTISRDNAKNRVYLQMNCLKPEDSAVYYCNKGETLYGSVPYDYWGQGTQLTVSS | high polyreactivity |
| QVQLVESGGGLVQAGGSLRLSCAASGSIFDRYALGWYRQAPGKERELVAAISTGGSTNYADSVKGRFTISRDNAKNTVYLQMNSLKPEDTAVYYCAAERYWVFHGTISYKYDYWGQGSQVTVSS | low polyreactivity |
| QVQLVESGGGLVQAGGSLRLSCAASGPTFYKYAMGWYRQAPGKEREFVATITRRGGSTYYADSVKGRFTISRDNAKNTVYLQMNSLNPEDTAVYYCAKEIFLKGPDGHDYWGQGTQVTVSS | low polyreactivity |
